Article PMC5010584, “Comparison of Ga-68-Labeled Fusarinine C-Based Multivalent RGD Conjugates and [^68Ga]NODAGA-RGD—In Vivo Imaging Studies in Human Xenograft Tumors” (Molecular Imaging and Biology, 2016)
Like-named read-outs stand apart in the source and are kept apart here. Each block holds one compound with its values, some of them ahead of it.

Columns and labels:
[1] = Distribution coefficient (logD), octanol/PBS; format: physicochemical
Protocol: A volume of 500 μl PBS including 0.5 MBq radioligand (approximately 0.5 μg peptide) was combined with 500 μl octanol; the mixture was vortexed for 15 min and centrifuged for 2 min at 2000 rcf. From each phase, an aliquot (50 μl) was pipetted out and measured in a 2480 Wizard2 Automatic Gamma Counter (PerkinElmer, Vienna, Austria). Each measurement was repeated five times. LogD value was calculated as the average log ratio of the radioactivity in the organic fraction and the PBS fraction.

[2] = system: M21 cells (integrin αvβ3 positive); experiment: Internalization assay in M21 cells; format: cell-based, human; settings: 90-min incubation, 37 °C
Protocol: One-milliliter aliquots in Eppendorf tubes were incubated at 37 °C for 1 h in triplicates, and [^68Ga]FSC(succ-RGD)3, [^68Ga]FSC(RGDfE)3, or [^68Ga]FSC(Mal-RGD)3 (approximately 1.5 × 10^6 cpm, 1.2 μg peptides) in PBS with 0.5 % BSA (150 μl, total series) or with 10 μM c(RGDyV) in PBS/0.5 % BSA (150 μl, nonspecific series) at 37 °C was added. After 90-min incubation was stopped by centrifugation, the medium was removed followed by washing (twice) with ice-cold Tris-buffered saline. After incubation in acid wash buffer (20 mM acetate buffer, pH 4.5) at 37 °C for 5 min (two times) and centrifugation, membrane bound activity was collected in plastic vials. Internalized radioligand fraction was collected after lysing cells by addition of 2 M NaOH. The internalized activity was expressed as percentage of total activity per milligram protein after spectrophotometric determination of protein (Bradford assay) in the NaOH fraction.

[3] = Ex vivo biodistribution in mice bearing M21/M21-L xenografts; settings: mouse, in vivo, iv
Protocol: (§1) For the induction of tumor xenografts, female, athymic BALB/c nude mice (Charles River Laboratories) were injected subcutaneously with either 5 × 10^6 integrin αvβ3-positive M21 cells into the right hind limb and with 5 × 10^6 integrin αvβ3-negative M21-L cells (negative control) into the left hind limb of the same mouse. […] On the day of the experiment, [^68Ga]FSC(succ-RGD)3, [^68Ga]FSC(RGDfE)3, or [^68Ga]FSC(Mal-RGD)3 (∼0.5 MBq/mouse, ∼0.5 μg peptide, respectively) was intravenously injected in the lateral tail vein. Mice were euthanized by cervical dislocation at 1 and 2 h (only for [^68Ga]FSC(succ-RGD)3) after injection. Organs (spleen, pancreas, stomach, intestine, kidney, liver, heart, and lung), blood, muscle tissue, and tumors were dissected and weighed. Activity of the different samples was measured in the gamma counter. Results were expressed as percentage of injected dose per gram tissue (% ID/g).

[4] = system: integrin αvβ3-positive (M21) and integrin αvβ3-negative (M21-L) human melanoma tumors; experiment: as above
Protocol: as §1

[5] = MicroPET/CT imaging in U87MG tumor-bearing mice; settings: mouse, uptake value in tumor (ROI analysis), U87MG xenograft, PET, 90 min p.i., retro-orbital
Protocol: To investigate the capabilities of binding to the integrin αvβ3 receptors in the different tumor xenograft models and, at the same time, compare the imaging properties of [^68Ga]FSC(succ-RGD)3 and [^68Ga]NODAGA-RGD, two U87MG tumor-bearing mice were administered retro-orbitally (r.o.) under general anesthesia with [^68Ga]FSC(succ-RGD)3 and [^68Ga]NODAGA-RGD each other (∼6 MBq/mouse, ∼5 μg peptide) at continued days. For the induction of tumor xenografts, female, athymic BALB/c nude mice (AnLab, Prague, Czech Republic) were injected subcutaneously with 5 × 10^6 U87MG cells into the right flank. The tumors were allowed to grow until they had reached a volume of 0.5 to 0.8 cm^3. Imaging experiments were conducted on an Albira microPET/SPECT/CT imaging system (Bruker Biospin Corporation, Woodbridge, CT, USA). MicroPET/CT images were acquired under general anesthesia (isoflurane/O2) and heating at 37 °C. PET data for each mouse was recorded via either dynamic imaging for 90 min (5-min PET scan per frame) or static scans (a 5-min PET scan (axial FOV 148 mm) was performed, followed by a 25-min CT scan (axial FOV 65 mm, 45 kVp, 400 μA, at 600 projections)) at 90 min p.i. […] The uptake values (%ID/g) in kidneys, heart, and tumor were analyzed by drawing standardized volumes of interest.

[6] = system: integrin αvβ3-positive M21 tumor; settings: mouse, in vivo, iv
Protocol: To compare the imaging properties of [^68Ga]FSC(succ-RGD)3, [^68Ga]FSC(RGDfE)3, and [^68Ga]FSC(Mal-RGD)3, microPET/CT imaging experiments were conducted on an Inveon microPET/CT scanner (Siemens Preclinical Solutions, Knoxville, USA). BALB/c nude mice bearing M21-positive tumor xenografts were administered with [^68Ga]FSC(succ-RGD)3 (or [^68Ga]FSC(RGDfE)3, [^68Ga]FSC(Mal-RGD)3, ∼5 MBq/mouse, ∼5 μg peptide) via intravenous (i.v.) injection. The body temperature of mice was maintained at 37 °C on the scanner bed and in the incubation chambers using heating pads. Dynamic 10-min duration PET scans were performed for 50 min while static PET scans (10 min) were performed at 1-h post-injection (p.i.), followed by a 25-min CT scan (spatial resolution, 113 μm; 80 kV, 500 mA). The mice remained under general anesthesia (isoflurane/O2) during the time between injection and imaging. […] Spherical isocontours were set at 50 % of the maximal pixel value to measure uptake values (Bq/ml) in kidneys, heart, and tumor.

[7] = system: integrin αvβ3-positive (M21) and integrin αvβ3-negative (M21-L) human melanoma tumors; settings: 1 h, cited from earlier work
[8] = molecular target: T1, integrin αvβ3 (Homo sapiens, UniProt P05106+P06756); experiment: Binding affinity for immobilized integrin αvβ3, displacement of [^125I]c(RGDyV); settings: isolated integrin αvβ3, radioligand [^125I]c(RGDyV), three independent measurements
T1 construct: purchased Millipore-Chemicon, Temecula, CA, USA
Protocol: In vitro binding affinities of cyclo(-Arg-Gly-Asp-DTyr-Val-) (c(RGDyV)) and the three FSC-RGD conjugates were determined by using isolated integrin αvβ3 (Millipore-Chemicon, Temecula, CA, USA) and I-125-labeled c(RGDyV) as radioligand. ([^125I]c(RGDyV) was produced as described in [18]). To integrin αvβ3, coated overnight at 4 °C onto 96-well plates (Nunc, Thermo Fisher Scientific, Vienna, Austria), [^125I]c(RGDyV) and the corresponding peptides in increasing concentrations from 0.001 to 100 nM were added. Plates were washed, and integrin bound activity was recovered with 2-M NaOH solution and counted in a gamma counter. OriginPro 8.5 software (Northampton, MA, USA) was used to calculate half maximal inhibitory concentration (IC50) values in three independent measurements.

[9] = M21 model, 1 h p.i., not statistically significant

T1 sequence (P06756 31-889 limits assumed): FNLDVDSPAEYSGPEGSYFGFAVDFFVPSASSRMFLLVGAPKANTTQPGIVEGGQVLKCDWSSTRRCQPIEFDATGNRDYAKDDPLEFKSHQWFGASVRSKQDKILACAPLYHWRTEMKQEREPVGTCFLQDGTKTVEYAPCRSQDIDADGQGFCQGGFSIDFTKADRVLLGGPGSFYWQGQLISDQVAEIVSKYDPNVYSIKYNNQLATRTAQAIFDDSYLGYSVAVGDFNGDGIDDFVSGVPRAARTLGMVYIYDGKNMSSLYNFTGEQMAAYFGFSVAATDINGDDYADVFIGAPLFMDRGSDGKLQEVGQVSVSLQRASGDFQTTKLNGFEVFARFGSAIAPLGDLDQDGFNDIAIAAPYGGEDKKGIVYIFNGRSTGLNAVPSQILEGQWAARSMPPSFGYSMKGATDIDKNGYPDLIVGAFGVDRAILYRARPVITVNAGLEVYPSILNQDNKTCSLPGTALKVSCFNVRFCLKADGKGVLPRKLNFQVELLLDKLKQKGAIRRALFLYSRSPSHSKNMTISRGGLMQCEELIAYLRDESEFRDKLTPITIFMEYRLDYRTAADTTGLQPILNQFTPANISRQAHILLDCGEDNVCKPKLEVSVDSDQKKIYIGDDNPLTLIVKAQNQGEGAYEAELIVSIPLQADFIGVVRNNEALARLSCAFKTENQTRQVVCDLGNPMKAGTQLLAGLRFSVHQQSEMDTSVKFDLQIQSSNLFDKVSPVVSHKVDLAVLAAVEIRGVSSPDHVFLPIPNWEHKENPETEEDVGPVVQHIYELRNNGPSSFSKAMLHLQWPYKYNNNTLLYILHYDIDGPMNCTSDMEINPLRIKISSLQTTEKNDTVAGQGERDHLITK
T1 sequence (P06756 891-1048 limits assumed): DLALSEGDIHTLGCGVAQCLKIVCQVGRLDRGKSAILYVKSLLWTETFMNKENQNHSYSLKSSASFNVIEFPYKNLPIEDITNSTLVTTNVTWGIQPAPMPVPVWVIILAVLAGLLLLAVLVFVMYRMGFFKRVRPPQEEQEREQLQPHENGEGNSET
T1 sequence (P05106 27-788): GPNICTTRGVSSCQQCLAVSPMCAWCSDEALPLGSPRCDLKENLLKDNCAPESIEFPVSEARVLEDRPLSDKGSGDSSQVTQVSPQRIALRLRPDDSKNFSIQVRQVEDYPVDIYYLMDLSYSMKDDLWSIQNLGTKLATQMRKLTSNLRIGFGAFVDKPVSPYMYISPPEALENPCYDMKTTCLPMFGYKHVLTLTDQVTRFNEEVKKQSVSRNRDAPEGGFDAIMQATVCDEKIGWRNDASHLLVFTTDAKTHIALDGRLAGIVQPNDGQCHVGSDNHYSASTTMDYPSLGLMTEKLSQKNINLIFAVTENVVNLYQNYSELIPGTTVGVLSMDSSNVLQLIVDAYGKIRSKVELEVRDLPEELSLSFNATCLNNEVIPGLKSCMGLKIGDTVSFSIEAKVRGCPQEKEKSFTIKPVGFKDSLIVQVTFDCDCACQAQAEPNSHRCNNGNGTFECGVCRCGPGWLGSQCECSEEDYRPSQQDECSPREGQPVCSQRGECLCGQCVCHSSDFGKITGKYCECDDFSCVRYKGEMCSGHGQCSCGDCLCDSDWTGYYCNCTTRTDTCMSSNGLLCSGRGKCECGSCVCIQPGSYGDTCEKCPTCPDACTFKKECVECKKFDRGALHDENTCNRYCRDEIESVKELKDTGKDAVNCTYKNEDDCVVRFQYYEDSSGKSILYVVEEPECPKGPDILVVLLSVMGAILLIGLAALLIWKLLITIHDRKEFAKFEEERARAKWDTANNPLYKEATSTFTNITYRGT

SMILES: C/C1=C/C(=O)N(O)CCC[C@H](NC(=O)CCC(=O)NCCCC[C@@H]2NC(=O)[C@@H](Cc3ccccc3)NC(=O)[C@H](CC(=O)O)NC(=O)CNC(=O)[C@H](CCCNC(=N)N)NC2=O)C(=O)OCC/C(C)=C\C(=O)N(O)CCC[C@H](NC(=O)CCC(=O)NCCCC[C@@H]2NC(=O)[C@@H](Cc3ccccc3)NC(=O)[C@H](CC(=O)O)NC(=O)CNC(=O)[C@H](CCCNC(=N)N)NC2=O)C(=O)OCC/C(C)=C\C(=O)N(O)CCC[C@H](NC(=O)CCC(=O)NCCCC[C@@H]2NC(=O)[C@@H](Cc3ccccc3)NC(=O)[C@H](CC(=O)O)NC(=O)CNC(=O)[C@H](CCCNC(=N)N)NC2=O)C(=O)OCC1 [[^68Ga]FSC(succ-RGD)3, metal not drawn]
logD [1]: -3.6 ± 0.1
internalized activity, % of total activity per milligram protein [2]: 5.7 ± 0.6 % cpm/mg
tissue uptake at 1 h ([3]; Heart uptake): 1.21 ± 0.28 %ID/g
tissue uptake at 1 h ([3]; Intestine uptake): 2.41 ± 0.8 %ID/g
tissue uptake at 1 h ([3]; Kidneys uptake): 8.12 ± 1.09 %ID/g
tissue uptake at 1 h ([3]; Liver uptake): 3.54 ± 0.63 %ID/g
tissue uptake at 1 h ([3]; Lung uptake): 2.42 ± 0.22 %ID/g
tissue uptake at 1 h ([3]; M21-L tumor uptake): 1.25 ± 0.06 %ID/g
tissue uptake at 1 h ([3]; M21 tumor uptake): 3.69 ± 0.94 %ID/g
tissue uptake at 1 h ([3]; Muscle uptake): 0.52 ± 0.19 %ID/g
tissue uptake at 1 h ([3]; Pancreas uptake): 0.61 ± 0.13 %ID/g
tissue uptake at 1 h ([3]; Stomach uptake): 2.02 ± 1.35 %ID/g
M21/kidneys ratio ([4]; 1 h p.i.): 0.5 ± 0.1
M21/kidneys ratio ([4]; 2 h p.i.): 0.6 ± 0.1
Blood uptake ([4]; mouse, in vivo, iv, 1 h): 0.63 ± 0.26 % ID/g
M21-L tumor uptake ([4]; mouse, in vivo, iv, 1 h): 1.10 ± 0.30 % ID/g
Spleen uptake ([4]; mouse, in vivo, iv, 1 h): 3.27 ± 0.64 % ID/g
tissue uptake at […] [5]: 3.8 %ID/g
earliest visualization of the receptor-positive tumor in dynamic PET [6]: 10 min p.i.

SMILES: N=C(N)NCCC[C@@H]1NC(=O)[C@H](CCCCNC(=O)CCC(C(=O)O)N2CCN(CC(=O)O)CCN(CC(=O)O)CC2)NC(=O)[C@@H](Cc2ccccc2)NC(=O)[C@H](CC(=O)O)NC(=O)CNC1=O (stereo partly drawn) [[^68Ga]NODAGA-RGD, metal not drawn]
higher tumor to blood ratio versus [^68Ga]FSC(succ-RGD)3 [4, 9]: 1.8 fold
higher tumor to kidney ratio versus [^68Ga]FSC(succ-RGD)3 [4, 9]: 2 fold
M21/kidneys ratio ([7]; same murine model, calculated based on the literature data ref 14): 1.0 ± 0.4
M21 tumor uptake ([7]; mouse, in vivo): 1.3 %ID/g

IC50 [8]: 6.2 ± 1.6 nM
SMILES: CC(C)[C@@H]1NC(=O)[C@@H](Cc2ccc(O)cc2)NC(=O)[C@H](CC(=O)O)NC(=O)CNC(=O)[C@H](CCCNC(=N)N)NC1=O [c(RGDyV), cyclo(-Arg-Gly-Asp-DTyr-Val-)]

SMILES: C/C1=C/C(=O)N(O)CCC[C@H](NC(=O)CC[C@@H]2NC(=O)[C@@H](Cc3ccccc3)NC(=O)[C@H](CC(=O)O)NC(=O)CNC(=O)[C@H](CCCNC(=N)N)NC2=O)C(=O)OCC/C(C)=C\C(=O)N(O)CCC[C@H](NC(=O)CC[C@@H]2NC(=O)[C@@H](Cc3ccccc3)NC(=O)[C@H](CC(=O)O)NC(=O)CNC(=O)[C@H](CCCNC(=N)N)NC2=O)C(=O)OCC/C(C)=C\C(=O)N(O)CCC[C@H](NC(=O)CC[C@@H]2NC(=O)[C@@H](Cc3ccccc3)NC(=O)[C@H](CC(=O)O)NC(=O)CNC(=O)[C@H](CCCNC(=N)N)NC2=O)C(=O)OCC1 [[^68Ga]FSC(RGDfE)3, metal not drawn]
logD [1]: -3.8 ± 0.2
internalized activity, % of total activity per milligram protein [2]: 5.3 ± 0.7 % cpm/mg
tissue uptake at 1 h ([3]; Blood uptake): 0.4 ± 0.08 %ID/g
tissue uptake at 1 h ([3]; Heart uptake): 1.52 ± 0.13 %ID/g
tissue uptake at 1 h ([3]; Intestine uptake): 3.21 ± 0.48 %ID/g
tissue uptake at 1 h ([3]; Kidneys uptake): 11.5 ± 1.87 %ID/g
tissue uptake at 1 h ([3]; Liver uptake): 12.1 ± 1.34 %ID/g
tissue uptake at 1 h ([3]; Lung uptake): 2.48 ± 1.07 %ID/g
tissue uptake at 1 h ([3]; M21-L tumor uptake): 1.1 ± 0.3 %ID/g
tissue uptake at 1 h ([3]; M21 tumor uptake): 5.49 ± 0.94 %ID/g
tissue uptake at 1 h ([3]; Muscle uptake): 0.94 ± 0.09 %ID/g
tissue uptake at 1 h ([3]; Pancreas uptake): 1.04 ± 0.12 %ID/g
tissue uptake at 1 h ([3]; Spleen uptake): 9.13 ± 0.27 %ID/g
tissue uptake at 1 h ([3]; Stomach uptake): 4.76 ± 0.25 %ID/g
M21-L tumor uptake ([4]; mouse, in vivo, iv, 1 h): 1.25 ± 0.06 % ID/g
